Source: patent US20020197702

T1: membrane derived procaspase-3, P42574
T1 chain: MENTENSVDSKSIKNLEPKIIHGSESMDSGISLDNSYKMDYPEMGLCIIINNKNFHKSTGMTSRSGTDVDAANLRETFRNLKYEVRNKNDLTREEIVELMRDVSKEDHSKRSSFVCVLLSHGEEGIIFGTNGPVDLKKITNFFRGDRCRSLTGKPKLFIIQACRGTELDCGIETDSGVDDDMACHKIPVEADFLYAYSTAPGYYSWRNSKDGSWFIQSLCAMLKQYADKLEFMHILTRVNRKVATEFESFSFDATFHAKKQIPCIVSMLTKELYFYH

T2: DEVD-amc (Acetyl-Asp-Glu-Val-Asp-aminomethylcoumarin)
T2 chain: DEVD


What was measured:
[1] = biological target: T1, membrane derived procaspase-3, P42574
[2] = biological target: T2, DEVD-amc …

| Protein | activation of DEVD-AMC hydrolysis activity in heavy membranes [1] | time course of activation of DEVD-AMC hydrolysis activity [1] | KM for DEVD-AMC hydrolysis [2] | kcat/KM for DEVD-AMC hydrolysis [2] |
| --- | --- | --- | --- | --- |
| recombinant murine caspase-1 (protein) NKEDGTFPGLTGTLKFCPLEKAQKLWKENPSEIYPIMNTTTRTRLALIICNTEFQHLSPRVGAQVDLREMKLLLEDLGYTVKVKENLTALEMVKEVKEFAACPEHKTSDSTFLVFMSHGIQEGICGTTYSNEVSDILKVDTIFQMMNTLKCPSLKDKPKVIIIQACRGEKQGVVLLKDSVRDSEEDFLTDAIFEDDGIKKAHIEKDFIAFCSSTPDNVSWRHPVRGSLFIESLIKHMKEYAWSCDLEDIFRKVRFSFEQPEFRLQMPTADRVTLTKRFYLFPGH | Treatment with recombinant caspase-1 causes a rapid, robust activation of the membrane caspase | The lack of a detectable time lag in the time course plot |  |  |
| affinity purified membrane derived caspase-3 from 697 cell heavy membranes (protein) chain 1: KNLEPKIIHGSESMDSGISLDNSYKMDYPEMGLCIIINNKNFHKSTGMTSRSGTDVDAANLRETFRNLKYEVRNKNDLTREEIVELMRDVSKEDHSKRSSFVCVLLSHGEEGIIFGTNGPVDLKKITNFFRGDRCRSLTGKPKLFIIQACRGTELDCGIETD chain 2: SGVDDDMACHKIPVDADFLYAYSTAPGYYSWRNSKDGSWFIQSLCAMLKQYADKLEFMHILTRVNRKVATEFESFSFDATFHAKKQIPCIVSMLTKELYFYH |  |  | The observed KM value for the purified caspase (10 uM) | must be >=400,000 M^-1sec^-1 |
| r-caspase-3 (His)6 (protein) chain 1: SGISLDNSYKMDYPEMGLCIIINNKNFHKSTGMTSRSGTDVDAANLRETFRNLKYEVRNKNDLTREEIVELMRDVSKEDHSKRSSFVCVLLSHGEEGIIFGTNGPVDLKKITNFFRGDRCRSLTGKPKLFIIQACRGTELDCGIETD chain 2: SGVDDDMACHKIPVEADFLYAYSTAPGYYSWRNSKDGSWFIQSLCAMLKQYADKLEFMHILTRVNRKVATEFESFSFDATFHAKKQIPCIVSMLTKELYFYHHHHHHH |  |  |  | the kcat/KM value for the recombinant caspase-3 (1,200,000 M^-1sec^-1) |
